Test results reported in paper PMC7036284 (Chemical research in toxicology, 2019).
Positions count from the first letter of the chain named.

B1: F^44L Tsa1 (recombinant, 6X-His tagged) (enzyme, S. cerevisiae)
chain: MVAQVQKQAPTFKKTAVVDGVFDEVSLDKYKGKYVVLAFIPLALTFVCPTEIIAFSEAAKKFEEQGAQVLFASTDSEYSLLAWTNIPRKEGGLGPINIPLLADTNHSLSRDYGVLIEEEGVALRGLFIIDPKGVIRHITINDLPVGRNVDEALRLVEAFQWTDKNGTVLPCNWTPGAATIKPTVEDSKEYFEAANK
B2: FYL Tsa1 (F^44L,Y^78L; recombinant, 6X-His tagged) (enzyme, S. cerevisiae)
chain: B1 chain with Y78L
B3: Y^78L Tsa1 (recombinant, 6X-His tagged) (enzyme, S. cerevisiae)
chain: B1 chain with L44F, Y78L
B4: FYA Tsa1 (F^44A,Y^78A; recombinant, 6X-His tagged) (enzyme, S. cerevisiae)
chain: B1 chain with L44A, Y78A
B5: Y^78A Tsa1 (recombinant, 6X-His tagged) (enzyme, S. cerevisiae)
chain: B1 chain with L44F, Y78A
B6: wild-type Tsa1 (recombinant, 6X-His tagged) (enzyme, S. cerevisiae)
chain: B1 chain with L44F
B7: F^44A Tsa1 (recombinant, 6X-His tagged) (enzyme, S. cerevisiae)
chain: B1 chain with L44A

Biological target: the molecule itself
Assay: SEC-MALS

Protein	stoichiometry N
B1	2
B2	2
B3	2
B4	2
B5	2

Biological target: the molecule itself
Assay: native gel or EMSA

Protein	stoichiometry N
B6	10
B7	2
